One block for each substance: values may come before it.
How the values were obtained:
[1] = target: sFlaF (soluble FlaF, Δ34FlaF, residues 35-164 with an N-terminal His-tag) (S. acidocaldarius); assay: SAXS
[2] = target: S-layer isolated from S. acidocaldarius strain MW001 (WT) (S. acidocaldarius (endogenous in MW001)) (UniProt Q4J6E5); assay: co-sedimentation
[3] = target: sFlaF-L101Y (S. acidocaldarius); assay: SEC
[4] = target: sFlaF-R161A (S. acidocaldarius); assay: SEC

stoichiometry N [1]: 2
percent bound [2]: 50%
Substance: sFlaF (soluble FlaF, Δ34FlaF, residues 35-164 with an N-terminal His-tag) (domain or fragment)

stoichiometry N [3]: 2
Substance: sFlaF-L101Y (domain or fragment)

stoichiometry N [4]: 2
Substance: sFlaF-R161A (domain or fragment)

Source: paper PMC4425475
